Data on 2 molecules can be found in patent publication US20170283470A1 (OXFORD NANOPORE TECHNOLOGIES, published 2017).

B1: CsgG (wild-type E. coli CsgG, outer membrane localized, C-terminally StrepII-tagged, membrane-extracted nonameric pore) (other)
chain: CLTAPPKEAARPTLMPRAQSYKDLTHLPAPTGKIFVSVYNIQDETGQFKPYPASNFSTAVPQSATAMLVTALKDSRWFIPLERQGLQNLLNERKIIRAAQENGTVAINNRIPLQSLTAANIMVEGSIIGYESNVKSGGVGARYFGIGADTQYQLDQIAVNLRVVNVSTGEILSSVNTSKTILSYEVQAGVFRFIDYQRLLEGEVGYTSNEPVMLCLMSAIETGVIFLINDGIDRGLWDLQNKAERQNDILVKYRHMSVPPES
modifications: N-terminal Cys of the mature protein triacylated (lipidated), as described in paragraph 145
notes: Produced from pPG1 in E. coli BL21(DE3) and extracted from outer membranes with detergent; It was amphipol A8-35-solubilized for native PAGE and EM, and reconstituted in planar phospholipid bilayers for single-channel recordings; also called CsgG channel; CsgG pore; not shown: C-terminal StrepII tag of construct pPG1
B2: CsgE (periplasmic accessory factor CsgE, his-tagged, CsgE-his) (other)
chain: VEVEVPGLLTDHTVSSIGHDFYRAFSDKWESDYTGNLTINERPSARWGSWITITVNQDVIFQTFLFPLKRDFEKTVVFALIQTEEALNRRQINQALLSTGDLAHDEF
notes: Added as purified monomeric CsgE; also called specificity factor CsgE; not shown: his tag (CsgE-his from pNH27)

Data set [1] deals with the molecule itself. In words: crystal structure, size-exclusion chromatography, EM and single-channel recordings. A general note: Size exclusion chromatography separates by hydrodynamic size, large species first.
In data set [2] the target is B1. The experiment in a line: SYPRO orange fluorescence of CsgE and CsgG bands on SDS-PAGE of the complex band cut from native PAGE.

For the molecule B1, the binding result in data set [1] is on record as “binds”. B2: the “CsgG/CsgE ratio (stoichiometry of the complex)” value in data set [2] is 0.97.
